Assay [1] addresses T1, human C5 (purified human complement C5, Complement Technology #A120; also C5 in normal human serum) (human, UniProt P01031 19-673; P01031 678-1676).
T1 construct: domain: β chain;domain: α chain; Purified plasma protein bought from Complement Technology; also called hC5
Put plainly: direct ELISA, plate coated with purified human C5, serially diluted mAb. The source says: Direct antigen binding ELISA in which mAbs are serially diluted across microtiter plates coated with purified human C5.
(ELISA stands for enzyme-linked immunosorbent assay.)

In assay [2] the target is T1, human C5 (purified human complement C5, …). Put plainly: ELISA, plate coated with human C5, anti-human IgG4-HRP detection. The source says:
A plate was coated with human C5.

T1 sequence (P01031 19-673 limits assumed, chain 1 of 2): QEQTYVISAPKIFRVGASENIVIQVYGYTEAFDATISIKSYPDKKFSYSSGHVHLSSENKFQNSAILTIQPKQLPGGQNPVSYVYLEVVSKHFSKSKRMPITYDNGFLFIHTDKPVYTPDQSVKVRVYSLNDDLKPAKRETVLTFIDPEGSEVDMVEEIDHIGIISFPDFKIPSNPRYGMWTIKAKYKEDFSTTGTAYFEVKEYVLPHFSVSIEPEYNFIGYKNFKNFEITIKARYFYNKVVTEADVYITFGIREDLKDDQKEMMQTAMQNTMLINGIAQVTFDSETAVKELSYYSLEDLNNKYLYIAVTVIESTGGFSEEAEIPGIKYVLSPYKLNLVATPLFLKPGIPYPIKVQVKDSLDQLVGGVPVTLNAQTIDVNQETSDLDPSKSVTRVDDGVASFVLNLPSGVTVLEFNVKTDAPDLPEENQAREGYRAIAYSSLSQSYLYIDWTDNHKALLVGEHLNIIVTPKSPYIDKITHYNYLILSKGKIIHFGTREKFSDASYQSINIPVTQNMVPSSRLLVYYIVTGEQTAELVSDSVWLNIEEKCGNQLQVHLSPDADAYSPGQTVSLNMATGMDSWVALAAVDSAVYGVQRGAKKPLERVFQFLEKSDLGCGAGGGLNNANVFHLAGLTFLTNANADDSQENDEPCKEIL
T1 sequence (P01031 678-1676 limits assumed, chain 2 of 2): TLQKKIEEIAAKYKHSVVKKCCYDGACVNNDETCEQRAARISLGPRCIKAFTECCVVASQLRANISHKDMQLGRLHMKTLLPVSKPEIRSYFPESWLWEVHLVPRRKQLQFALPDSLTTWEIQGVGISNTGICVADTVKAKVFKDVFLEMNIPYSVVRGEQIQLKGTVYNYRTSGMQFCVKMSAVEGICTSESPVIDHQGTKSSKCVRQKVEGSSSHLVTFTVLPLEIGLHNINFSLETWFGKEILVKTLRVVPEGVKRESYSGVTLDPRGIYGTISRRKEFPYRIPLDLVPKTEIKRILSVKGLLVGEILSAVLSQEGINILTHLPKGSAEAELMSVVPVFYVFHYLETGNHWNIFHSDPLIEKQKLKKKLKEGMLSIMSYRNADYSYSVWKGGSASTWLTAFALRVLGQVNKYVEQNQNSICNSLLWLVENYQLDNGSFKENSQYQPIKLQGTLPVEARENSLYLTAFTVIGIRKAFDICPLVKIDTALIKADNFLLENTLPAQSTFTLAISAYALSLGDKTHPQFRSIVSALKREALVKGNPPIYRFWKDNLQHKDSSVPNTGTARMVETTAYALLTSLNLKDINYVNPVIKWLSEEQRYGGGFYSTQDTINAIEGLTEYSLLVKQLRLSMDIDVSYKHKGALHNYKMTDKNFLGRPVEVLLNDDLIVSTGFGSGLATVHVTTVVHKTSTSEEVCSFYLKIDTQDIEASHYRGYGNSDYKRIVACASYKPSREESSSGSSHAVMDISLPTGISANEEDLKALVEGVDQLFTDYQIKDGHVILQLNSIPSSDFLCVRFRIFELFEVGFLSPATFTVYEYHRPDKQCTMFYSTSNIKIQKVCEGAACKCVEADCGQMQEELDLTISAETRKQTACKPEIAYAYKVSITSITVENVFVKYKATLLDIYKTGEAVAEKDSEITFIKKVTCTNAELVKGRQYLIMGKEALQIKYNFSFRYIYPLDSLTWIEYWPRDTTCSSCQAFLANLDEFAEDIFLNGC

B1: anti-human C5 mAb 8E1 (antibody, V domains shown)
VH: QVQLKESGPGLVAPSQSLSITCTVSGFPLNNYGIHWVRQPPGKGLEWLAVIWSDGRTTYNSALNSRLSISKDNSKSQVFFKMNSLQTDDTAMYYCARHDGRGDYSMDYWGQGTSVTVSS
VL: ELVMTQSPASLVVSLGQRATISCRASKGVSTSVYSYMHWYQQKPGQPPKLLIYLASNLESGVPARFSGSGSGTDFSLNIHPVEEEDAATYYCQQSGELPLTFGAGTKLELKR
notes: Murine hybridoma mAb; entries may include the leader peptide
As for B1, the binding result in assay [1] is “binds”.

B2: anti-human C5 mAb 11C5 (antibody, V domains shown)
VH: EVQLVESGGGLVKPGGSLKLSCAASGFTFTTYAMSWVRQTPEKRLEWVATISAGGTYTYYSDNVKGRFTISRDNAKNNLYLQMSHLKSEDTAMFYCARDPDYYGRSPFAYWGQGTLVTVSA
VL: EIVLTQSPATLSVTPGESVSLSCRASQSISNNLQWYQQKSHESPRLLIKYASQSISGIPSRFSGSGSGTDFTLSINSVETEDFGMYFCQQSNSWPLTFGGGTKVELKR
notes: as for B1
For B2, the binding result in assay [1] is recorded as “binds”.

B3: humanized 2G1 (VH-11801/VL-1901) (antibody, V domains shown)
VH: QVQLVQSGAEVKKPGASVKVSCKASGYTITDYNLDWVRQAPGQGLEWMGDISPNYGYTIYNQKFKDRVTMTTDTSTSTAYMELRSLRSDDTAVYYCARRDIRYSGNSYKWYFDVWGQGTMVTVSS
VL: DIQLTQSPSFLSASVGDRVTITCRTSKSISKYLAWYQQKPGKAPKLLIYSGSTLQSGVPSRFSGSGSGTEFTLTISSLQPEDFATYYCQQHNEYPYTFGQGTKLEIKT
notes: Human IgG4 mAb with S228P, expressed in CHO cells
On to B3, for which, in assay [2], the binding result is reported as “binds”.

B4: humanized 2G1 (VH-16901/VL-1901) (antibody, V domains shown)
VH: QVQLVQSGAEVKKPGSSVKVSCKASGYTITDYNLDWVRQAPGQGLEWMGDISPNYGYTIYNQKFKDRVTITADESTSTAYMELSSLRSEDTAVYYCARRDIRYSGNSYKWYFDVWGQGTMVTVSS
VL: DIQLTQSPSFLSASVGDRVTITCRTSKSISKYLAWYQQKPGKAPKLLIYSGSTLQSGVPSRFSGSGSGTEFTLTISSLQPEDFATYYCQQHNEYPYTFGQGTKLEIKT
notes: as for B3
B4: the binding result in assay [2] is “binds”.

B5: anti-human C5 mAb 9G6 (antibody, V domains shown)
VH: QIQLVQSGPELKKPGETVKISCKASGYTFTEYPMHWVKQAPGKSFKWMGILYTDTGEPTYAEEFRGRFAFSLETSASTAYLQINNLKNEDTATYFCVHSGYVGYWGQGTTLTVSS
VL: DIQMTQSPASLSASVGETVTFTCRASEIIYSYLVWYQQKQGKSPQLLVSNAKTLAEGVPSRFSGSGSGTQFSLKINSLQPEDFGSYYCQHYYGNPPTFGGGTKLEIKR
notes: as for B1
On to B5, for which the binding result in assay [1] is “binds”.
